Data reported in the Human Domainome abundance scans (Beltran et al. 2025).
± gives the uncertainty stated by the source.

B1: Friend leukemia integration 1 transcription factor, residues 116 to 197; numbered along this chain, Q01543 (parent)
chain: NMTTNERRVIVPADPTLWTQEHVRQWLEWAIKEYSLMEIDTSFFQNMDGKELCKMNKEDFLRATTLYNTEVLLSHLSYLRES

Variants of: B1
Test: abundance fitness (aPCA) (normalised: wild type 0, dead -1); higher = more abundant; growth selection in yeast, the domain comes from the species named
Conditions: Homo sapiens

NMTTNERRVIVPADPWLWTQEHVRQWLEWAIKEYSLMEIDTSFFQNMDGKELCKMNKEDFLRATTLYNTEVLLSHLSYLRES [T16W] and NMTTNERRVIVPADPPLWTQEHVRQWLEWAIKEYSLMEIDTSFFQNMDGKELCKMNKEDFLRATTLYNTEVLLSHLSYLRES [T16P] are within error of each other in abundance fitness: -0.021 ± 0.13 for the first, -0.277 ± 0.17 for the second.

NMTTNERRVIVPADPRLWTQEHVRQWLEWAIKEYSLMEIDTSFFQNMDGKELCKMNKEDFLRATTLYNTEVLLSHLSYLRES [T16R] and NMTTNERRVIVPADPQLWTQEHVRQWLEWAIKEYSLMEIDTSFFQNMDGKELCKMNKEDFLRATTLYNTEVLLSHLSYLRES [T16Q] are within error of each other in abundance fitness: -0.139 ± 0.12 for the first, -0.306 ± 0.21 for the second.

NMTTNERRVIVPADPYLWTQEHVRQWLEWAIKEYSLMEIDTSFFQNMDGKELCKMNKEDFLRATTLYNTEVLLSHLSYLRES [T16Y] and NMTTNERRVIVPADPVLWTQEHVRQWLEWAIKEYSLMEIDTSFFQNMDGKELCKMNKEDFLRATTLYNTEVLLSHLSYLRES [T16V] are within error of each other in abundance fitness: -0.166 ± 0.47 for the first, -0.052 ± 0.15 for the second.

Going from NMTTNERRVIVPADPSLWTQEHVRQWLEWAIKEYSLMEIDTSFFQNMDGKELCKMNKEDFLRATTLYNTEVLLSHLSYLRES [T16S] to NMTTNERRVIVPADPTLATQEHVRQWLEWAIKEYSLMEIDTSFFQNMDGKELCKMNKEDFLRATTLYNTEVLLSHLSYLRES [W18A], the abundance fitness falls from -0.087 ± 0.12 to -0.879 ± 0.14.

NMTTNERRVIVPADPTLQTQEHVRQWLEWAIKEYSLMEIDTSFFQNMDGKELCKMNKEDFLRATTLYNTEVLLSHLSYLRES [W18Q] and NMTTNERRVIVPADPTLLTQEHVRQWLEWAIKEYSLMEIDTSFFQNMDGKELCKMNKEDFLRATTLYNTEVLLSHLSYLRES [W18L] are within error of each other in abundance fitness: -0.891 ± 0.1 for the first, -0.868 ± 0.2 for the second.

NMTTNERRVIVPADPTLSTQEHVRQWLEWAIKEYSLMEIDTSFFQNMDGKELCKMNKEDFLRATTLYNTEVLLSHLSYLRES [W18S] and NMTTNERRVIVPADPTLMTQEHVRQWLEWAIKEYSLMEIDTSFFQNMDGKELCKMNKEDFLRATTLYNTEVLLSHLSYLRES [W18M] are within error of each other in abundance fitness: -0.981 ± 0.35 for the first, -0.616 ± 0.21 for the second.

NMTTNERRVIVPADPTLPTQEHVRQWLEWAIKEYSLMEIDTSFFQNMDGKELCKMNKEDFLRATTLYNTEVLLSHLSYLRES [W18P] and NMTTNERRVIVPADPTLRTQEHVRQWLEWAIKEYSLMEIDTSFFQNMDGKELCKMNKEDFLRATTLYNTEVLLSHLSYLRES [W18R] are within error of each other in abundance fitness: -0.753 ± 0.097 for the first, -0.563 ± 0.12 for the second.

NMTTNERRVIVPADPTLKTQEHVRQWLEWAIKEYSLMEIDTSFFQNMDGKELCKMNKEDFLRATTLYNTEVLLSHLSYLRES [W18K] and NMTTNERRVIVPADPTLFTQEHVRQWLEWAIKEYSLMEIDTSFFQNMDGKELCKMNKEDFLRATTLYNTEVLLSHLSYLRES [W18F] are within error of each other in abundance fitness: -1.18 ± 0.31 for the first, -0.719 ± 0.49 for the second.

NMTTNERRVIVPADPTLYTQEHVRQWLEWAIKEYSLMEIDTSFFQNMDGKELCKMNKEDFLRATTLYNTEVLLSHLSYLRES [W18Y] and NMTTNERRVIVPADPTLGTQEHVRQWLEWAIKEYSLMEIDTSFFQNMDGKELCKMNKEDFLRATTLYNTEVLLSHLSYLRES [W18G] are within error of each other in abundance fitness: -0.759 ± 0.39 for the first, -0.458 ± 0.1 for the second.

First: NMTTNERRVIVPADPTLDTQEHVRQWLEWAIKEYSLMEIDTSFFQNMDGKELCKMNKEDFLRATTLYNTEVLLSHLSYLRES [W18D]
Second: NMTTNERRVIVPADPTLWNQEHVRQWLEWAIKEYSLMEIDTSFFQNMDGKELCKMNKEDFLRATTLYNTEVLLSHLSYLRES [T19N]
The abundance fitness of the first is lower: -0.803 ± 0.31 for the first, -0.263 ± 0.17 for the second.

First: NMTTNERRVIVPADPTLWFQEHVRQWLEWAIKEYSLMEIDTSFFQNMDGKELCKMNKEDFLRATTLYNTEVLLSHLSYLRES [T19F]
Second: NMTTNERRVIVPADPTLWGQEHVRQWLEWAIKEYSLMEIDTSFFQNMDGKELCKMNKEDFLRATTLYNTEVLLSHLSYLRES [T19G]
The abundance fitness of the first is lower: -0.79 ± 0.47 for the first, -0.194 ± 0.097 for the second.

NMTTNERRVIVPADPTLWAQEHVRQWLEWAIKEYSLMEIDTSFFQNMDGKELCKMNKEDFLRATTLYNTEVLLSHLSYLRES [T19A] and NMTTNERRVIVPADPTLWMQEHVRQWLEWAIKEYSLMEIDTSFFQNMDGKELCKMNKEDFLRATTLYNTEVLLSHLSYLRES [T19M] are within error of each other in abundance fitness: -0.309 ± 0.14 for the first, -0.39 ± 0.11 for the second.

First: NMTTNERRVIVPADPTLWHQEHVRQWLEWAIKEYSLMEIDTSFFQNMDGKELCKMNKEDFLRATTLYNTEVLLSHLSYLRES [T19H]
Second: NMTTNERRVIVPADPTLWIQEHVRQWLEWAIKEYSLMEIDTSFFQNMDGKELCKMNKEDFLRATTLYNTEVLLSHLSYLRES [T19I]
The abundance fitness of the first is higher: 0.12 ± 0.12 for the first, -0.529 ± 0.2 for the second.

Compared with NMTTNERRVIVPADPTLWRQEHVRQWLEWAIKEYSLMEIDTSFFQNMDGKELCKMNKEDFLRATTLYNTEVLLSHLSYLRES [T19R], NMTTNERRVIVPADPTLWVQEHVRQWLEWAIKEYSLMEIDTSFFQNMDGKELCKMNKEDFLRATTLYNTEVLLSHLSYLRES [T19V] is lower in abundance fitness: -0.12 ± 0.077 for the first, -0.351 ± 0.12 for the second.

NMTTNERRVIVPADPTLWCQEHVRQWLEWAIKEYSLMEIDTSFFQNMDGKELCKMNKEDFLRATTLYNTEVLLSHLSYLRES [T19C] and NMTTNERRVIVPADPTLWKQEHVRQWLEWAIKEYSLMEIDTSFFQNMDGKELCKMNKEDFLRATTLYNTEVLLSHLSYLRES [T19K] are within error of each other in abundance fitness: -0.296 ± 0.27 for the first, -0.12 ± 0.13 for the second.

NMTTNERRVIVPADPTLWPQEHVRQWLEWAIKEYSLMEIDTSFFQNMDGKELCKMNKEDFLRATTLYNTEVLLSHLSYLRES [T19P] and NMTTNERRVIVPADPTLWWQEHVRQWLEWAIKEYSLMEIDTSFFQNMDGKELCKMNKEDFLRATTLYNTEVLLSHLSYLRES [T19W] are within error of each other in abundance fitness: -1.02 ± 0.48 for the first, -0.796 ± 0.16 for the second.

Variant NMTTNERRVIVPADPTLWSQEHVRQWLEWAIKEYSLMEIDTSFFQNMDGKELCKMNKEDFLRATTLYNTEVLLSHLSYLRES [T19S] has an abundance fitness of -0.113 ± 0.13.
